Data reported in US20030068675, “Position dependent recognition of GNN nucleotide triplets by zinc fingers” (published 2003).
Where a chain is given by its changes, count along the chain named.

What was measured:
Test in all cases: EMSA
Conditions in all cases: tags: MBP fusion
ZFP SBS#1153 = molecular target: T1, ZFP SBS#1153 (synthetic)
T1 chain: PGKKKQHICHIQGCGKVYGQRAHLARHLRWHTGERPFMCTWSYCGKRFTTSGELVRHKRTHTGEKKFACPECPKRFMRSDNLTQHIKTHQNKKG
Procedure, shortened: (§1)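 Purified ZFP was titrated against labeled double-stranded target (1 nM or lower, at least 10-fold below expected Kd) carrying the natural binding site with flanks. Binding buffer was 10 mM Tris pH 7.5, 100 mM KCl, 1 mM MgCl2, 0.1 mM ZnCl2, 5 mM DTT, 10% glycerol, 0.02% BSA, with equilibration for at least 45 min. Bound and free target were separated on a 10% polyacrylamide gel.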

ZFP SBS#1152 = molecular target: T2, ZFP SBS#1152 (synthetic)
T2 chain: T1 chain with R21S, A22G
Procedure, shortened: as §1

ZFP SBS#1135 = ZFP SBS#1135 (synthetic, UniProt P08047)
Procedure, shortened: as §1

ZFP SBS#259 = ZFP SBS#259 (synthetic)
Procedure, shortened: as §1

ZFP SBS#1130 = molecular target: T3, ZFP SBS#1130 (synthetic)
T3 chain: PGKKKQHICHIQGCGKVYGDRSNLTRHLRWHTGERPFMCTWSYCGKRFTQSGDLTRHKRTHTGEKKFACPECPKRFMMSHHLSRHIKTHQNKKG
Procedure, shortened: as §1

ZFP SBS#1149 = ZFP SBS#1149 (synthetic)
Procedure, shortened: as §1

ZFP SBS#1148 = molecular target: T4, ZFP SBS#1148 (synthetic)
T4 chain: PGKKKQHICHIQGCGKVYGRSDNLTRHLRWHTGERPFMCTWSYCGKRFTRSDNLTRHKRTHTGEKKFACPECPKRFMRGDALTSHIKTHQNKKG
Procedure, shortened: as §1

ZFP SBS#1120 = molecular target: T5, ZFP SBS#1120 (synthetic)
T5 chain: T4 chain with N23E, R50D, S51R, D52S, G79S, A81H, S84Q
Procedure, shortened: as §1

ZFP SBS#1124 = molecular target: T6, ZFP SBS#1124 (synthetic)
T6 chain: T1 chain with R21S, A22G, E53N, N81A, Q84R
Procedure, shortened: as §1

ZFP SBS#1121 = molecular target: T7, ZFP SBS#1121 (synthetic)
T7 chain: T4 chain with R20E, S21R, D22G, N23D, N53A, G79S, T83R, S84E
Procedure, shortened: as §1

ZFP SBS#1122 = molecular target: T8, ZFP SBS#1122 (synthetic)
T8 chain: T4 chain with R20D, S21R, D22S, N23S, N53A, G79S, T83R, S84E
Procedure, shortened: as §1

ZFP SBS#1133 = molecular target: T9, ZFP SBS#1133 (synthetic, UniProt P08047)
T9 chain: T1 chain with A25E, N81H, T83S, Q84R
Procedure, shortened: as §1

ZFP SBS#1132 = molecular target: T10, ZFP SBS#1132 (synthetic, UniProt P08047)
T10 chain: T1 chain with R21S, A22G, N81H, T83S, Q84R
Procedure, shortened: as §1

ZFP SBS#1112 = ZFP SBS#1112 (synthetic)
Procedure, shortened: as §1

ZFP SBS#1111 = molecular target: T11, ZFP SBS#1111 (synthetic)
T11 chain: T1 chain with Q20R, R21S, A22D, T50Q, G52S, E53S, N81A, T83R, Q84E
Procedure, shortened: as §1

ZFP SBS#1110 = molecular target: T12, ZFP SBS#1110 (synthetic)
T12 chain: T3 chain with N23S, S51R, G52A, D53H, T55E, M78R, H80D, S83T, R84Q
Procedure, shortened: as §1

ZFP SBS#1109 = molecular target: T13, ZFP SBS#1109 (synthetic)
T13 chain: T1 chain with Q20E, A22G, H23D, A25T, T50Q, S51R, G52A, E53H, V55E, N81H
Procedure, shortened: as §1

ZFP SBS#1134 = ZFP SBS#1134 (synthetic, UniProt P08047)
Procedure, shortened: as §1

ZFP SBS#472 = molecular target: T14, ZFP SBS#472 (synthetic)
T14 chain: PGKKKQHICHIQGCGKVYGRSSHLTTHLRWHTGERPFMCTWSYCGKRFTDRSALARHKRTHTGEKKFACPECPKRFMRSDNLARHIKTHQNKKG
Procedure, shortened: as §1

ZFP SBS#1137 = ZFP SBS#1137 (synthetic)
Procedure, shortened: as §1

ZFP SBS#1136 = molecular target: T15, ZFP SBS#1136 (synthetic)
T15 chain: T4 chain with N23A, R50Q, S51R, D52A, N53H, T55E, G79S, A81T, T83R, S84E
Procedure, shortened: as §1

ZFP SBS#1119 = molecular target: T16, ZFP SBS#1119 (synthetic, UniProt P08047)
T16 chain: T4 chain with R20T, D22G, N23H, T25V, T55A, G79S, A81H, S84T
Procedure, shortened: as §1

ZFP SBS#1154 = molecular target: T17, ZFP SBS#1154 (synthetic, UniProt P08047)
T17 chain: T4 chain with R26T, N53E, T55Q, G79S, T83R, S84E
Procedure, shortened: as §1

ZFP SBS#1113 = ZFP SBS#1113 (synthetic)
Procedure, shortened: as §1

ZFP SBS#466 = ZFP SBS#466 (synthetic)
Procedure, shortened: as §1

ZFP SBS#468 = ZFP SBS#468 (synthetic)
Procedure, shortened: as §1

ZFP SBS#467 = ZFP SBS#467 (synthetic)
Procedure, shortened: as §1

ZFP SBS#1118 = molecular target: T18, ZFP SBS#1118 (synthetic)
T18 chain: T3 chain with N23A, S51R, G52A, D53H, T55E, M78R, H80D, H81N, S83T, R84T
Procedure, shortened: as §1

ZFP SBS#469 = molecular target: T19, ZFP SBS#469 (synthetic)
T19 chain: T3 chain with N23A, T25A, Q50R, G52D, D53N, T55A, M78Q, H80G, H81N, S83T
Procedure, shortened: as §1

ZFP SBS#1114 = molecular target: T20, ZFP SBS#1114 (synthetic)
T20 chain: T1 chain with R21S, A22S, H23N, E53S, V55T, T83R, Q84E
Procedure, shortened: as §1

ZFP SBS#1115 = ZFP SBS#1115 (synthetic)
Procedure, shortened: as §1

ZFP SBS#1138 = ZFP SBS#1138 (synthetic)
Procedure, shortened: as §1

ZFP SBS#1123 = ZFP SBS#1123 (synthetic)
Procedure, shortened: as §1

Chain of ZFP SBS#1115 (synthetic) (chain, as listed by the source): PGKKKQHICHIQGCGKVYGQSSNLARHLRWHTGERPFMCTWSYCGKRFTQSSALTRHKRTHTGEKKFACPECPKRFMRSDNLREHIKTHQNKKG
Chain of ZFP SBS#1138 (synthetic) (chain, as listed by the source): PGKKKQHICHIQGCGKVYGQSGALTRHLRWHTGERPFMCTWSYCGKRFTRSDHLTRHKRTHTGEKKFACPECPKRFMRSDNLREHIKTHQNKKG
Chain of ZFP SBS#1112 (synthetic) (chain, as listed by the source): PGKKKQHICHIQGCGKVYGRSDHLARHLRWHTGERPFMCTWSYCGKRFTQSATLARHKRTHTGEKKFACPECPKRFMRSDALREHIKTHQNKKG
Chain of ZFP SBS#468 (synthetic) (chain, as listed by the source): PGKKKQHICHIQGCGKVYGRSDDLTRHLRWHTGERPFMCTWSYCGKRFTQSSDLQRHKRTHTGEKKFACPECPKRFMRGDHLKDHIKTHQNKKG
Chain of ZFP SBS#1123 (synthetic) (chain, as listed by the source): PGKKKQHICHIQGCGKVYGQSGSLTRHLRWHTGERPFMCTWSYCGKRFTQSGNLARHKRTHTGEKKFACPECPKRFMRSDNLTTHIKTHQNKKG
Chain of ZFP SBS#466 (synthetic) (chain, as listed by the source): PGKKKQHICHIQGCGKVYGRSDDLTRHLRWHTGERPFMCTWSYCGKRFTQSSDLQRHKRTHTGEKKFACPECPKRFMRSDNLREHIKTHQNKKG
Chain of ZFP SBS#467 (synthetic) (chain, as listed by the source): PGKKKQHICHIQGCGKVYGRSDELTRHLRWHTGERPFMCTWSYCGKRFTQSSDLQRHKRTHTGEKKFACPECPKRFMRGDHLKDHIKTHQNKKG

B1: AAGGCTGGA (dsDNA)
DNA 1: AAGGCTGGA
DNA 2: TCCAGCCTT
Kd (ZFP SBS#1153): 8.2 nM
Kd (ZFP SBS#1152): 1.6 nM

B2: GCGGCGGGG (dsDNA)
DNA 1: GCGGCGGGG
DNA 2: CCCCGCCGC
Kd (ZFP SBS#1135): 0.025 nM

B3: GCAGAGGAG (dsDNA)
DNA 1: GCAGAGGAG
DNA 2: CTCCTCTGC
Kd (ZFP SBS#259): 250 nM

B4: GGTGCAGAC (dsDNA)
DNA 1: GGTGCAGAC
DNA 2: GTCTGCACC
Kd (ZFP SBS#1130): 0.1 nM

B5: TTGGAGGAG (dsDNA)
DNA 1: TTGGAGGAG
DNA 2: CTCCTCCAA
Kd (ZFP SBS#1149): 0.004 nM
Kd (ZFP SBS#1148): 0.006 nM

B6: AGGGACGCG (dsDNA)
DNA 1: AGGGACGCG
DNA 2: CGCGTCCCT
Kd (ZFP SBS#1120): 2.73 nM

B7: GTGGATGGA (dsDNA)
DNA 1: GTGGATGGA
DNA 2: TCCATCCAC
Kd (ZFP SBS#1124): 0.101 nM

B8: CTGGTGGCC (dsDNA)
DNA 1: CTGGTGGCC
DNA 2: GGCCACCAG
Kd (ZFP SBS#1121): 2.76 nM
Kd (ZFP SBS#1122): 0.101 nM

B9: GGGGCTGGA (dsDNA)
DNA 1: GGGGCTGGA
DNA 2: TCCAGCCCC
Kd (ZFP SBS#1133): 0.5 nM
Kd (ZFP SBS#1132): 0.055 nM

B10: CTGGTAGGG (dsDNA)
DNA 1: CTGGTAGGG
DNA 2: CCCTACCAG
Kd (ZFP SBS#1112): 0.125 nM
Kd (ZFP SBS#1111): 0.095 nM

B11: AGGGGAGCC (dsDNA)
DNA 1: AGGGGAGCC
DNA 2: GGCTCCCCT
Kd (ZFP SBS#1110): 0.095 nM
Kd (ZFP SBS#1109): 0.347 nM

B12: TGGGGGTGG (dsDNA)
DNA 1: TGGGGGTGG
DNA 2: CCACCCCCA
Kd (ZFP SBS#1134): 0.067 nM

B13: GAGGTCTGGA (dsDNA)
DNA 1: GAGGTCTGGA
DNA 2: TCCAGACCTC
Kd (ZFP SBS#472): 80 nM

B14: CCGGGAGTG (dsDNA)
DNA 1: CCGGGAGTG
DNA 2: CACTCCCGG
Kd (ZFP SBS#1137): 0.085 nM
Kd (ZFP SBS#1136): 0.225 nM

B15: TGGGAGGGT (dsDNA)
DNA 1: TGGGAGGGT
DNA 2: ACCCTCCCA
Kd (ZFP SBS#1119): 0.1 nM

B16: CTGGCGTAG (dsDNA)
DNA 1: CTGGCGTAG
DNA 2: CTACGCCAG
Kd (ZFP SBS#1154): 1.04 nM

B17: CTGGGGGCA (dsDNA)
DNA 1: CTGGGGGCA
DNA 2: TGCCCCCAG
Kd (ZFP SBS#1113): 0.06 nM

B18: CAGGCTGCGC (dsDNA)
DNA 1: CAGGCTGCGC
DNA 2: GCGCAGCCTG
Kd (ZFP SBS#466): 65 nM
Kd (ZFP SBS#468): 42 nM
Kd (ZFP SBS#467): 800 nM

B19: TAGGGAGTC (dsDNA)
DNA 1: TAGGGAGTC
DNA 2: GACTCCCTA
Kd (ZFP SBS#1118): 1.4 nM

B20: GAAGAGGTCT (dsDNA)
DNA 1: GAAGAGGTCT
DNA 2: AGACCTCTTC
Kd (ZFP SBS#469): 13.5 nM

B21: CAGGTTGAT (dsDNA)
DNA 1: CAGGTTGAT
DNA 2: ATCAACCTG
Kd (ZFP SBS#1114): 2.75 nM
Kd (ZFP SBS#1115): 0.7 nM

B22: CAGGGGGTA (dsDNA)
DNA 1: CAGGGGGTA
DNA 2: TACCCCCTG
Kd (ZFP SBS#1138): 0.027 nM

B23: TAGGAAGCA (dsDNA)
DNA 1: TAGGAAGCA
DNA 2: TGCTTCCTA
Kd (ZFP SBS#1123): 0.065 nM
